This passage reports Kd results from US20100210473A1.

Assay [1] addresses monomeric gp120 (HIV-1) (HIV-1). Put plainly: yeast display flow cytometry, gp120 titrated in the absence of sCD4, MFI of antigen binding (sandwich with biotinylated mAb and SA-PE). On the technique in general: In flow cytometry, cells or beads pass a laser one at a time.
The target in assay [2] is gp120 complexed with soluble CD4 (HIV-1). Put plainly: yeast display flow cytometry, gp120 titrated in the presence of sCD4, MFI of antigen binding (sandwich with biotinylated mAb and SA-PE).
Assay [3] addresses antigen of Z13e1 scFv ('its antigen').

Take “scFv X5 displayed on yeast (X5-pPNLS in EBY100)”: the equilibrium dissociation constant (Kd) (usually a measure of binding affinity in units of concentration) in assay [1] was found to be 14.5 nM; in assay [2] it was 1.1 nM.

As for Z13e1 scFv displayed on yeast, the dissociation constant Kd in assay [3] turned out to be 50 nM.
